Three molecules from publication PMC4687524, “Molecular Properties and Functional Divergence of the Dehydroascorbate Reductase Gene Family in Lower and Higher Plants” (PLoS ONE, 2015) can be followed below.

Holding throughout (test): A265 increase (ascorbate formation), nonlinear regression
In one data set the test system is T1, ZmDHAR2.
T1 construct: gene DHAR2; clade I
It counts as biochemical, Zea mays. The following applies: 0.42 mM GSH; DHA 0.013-1.677 mM; 90 mM potassium phosphate pH 6.5, 25 C; read-out: Kinetic constants / K m ^DHA. The source says: A265 increase (ascorbate formation), nonlinear regression on ZmDHAR2

Substrate in data set [1]: O=C1O[C@H]([C@@H](O)CO)C(=O)C1=O
The class given is biochemical, Selaginella moellendorffii. The following applies: 0.42 mM GSH, DHA 0.013-1.677 mM, 90 mM potassium phosphate pH 6.5, 25 C. The source says: A265 increase (ascorbate formation), nonlinear regression on SmDHAR1

Substrate in data set [2]: O=C1O[C@H]([C@@H](O)CO)C(=O)C1=O
The class given is biochemical, Picea abies. Particulars: 0.42 mM GSH, DHA 0.013-1.677 mM, 90 mM potassium phosphate pH 6.5, 25 C. The source says: A265 increase (ascorbate formation), nonlinear regression on PabDHAR2

With `O=C1O[C@H]([C@@H](O)CO)C(=O)C1=O` [dehydroascorbate], the Km in the data set with ZmDHAR2 came out at 68 ± 9 µM.

B1: SmDHAR1 (Selaginella moellendorffii) (protein)
chain: MAVATTEAVEVLVKAANGDPSRLGDCPFSQRVLLTLEEKGIPYNSKFVDMENKPAWFLEANPEGKVPVVKDDGKWVADSDVITQLIETKFPSPSLVTPPEKSSVGSKIFSSFVKFLKSKDPSDGSEAALLEELKTLDEYLAKNGPFVNGSNISAVDLSLAPKLYHLKIALGHYKQWSVPQNLTNLNSYMEALFKRESFQKTMAPAEVVVKGWAKHLSA
notes: full length without predicted signal peptide, N-terminal 6xHis (pET-30a), E. coli BL21(DE3), Ni Sepharose; cytosolic, clade I
As to B1, the Km in data set [1] turned out to be 115 ± 4 µM.

B2: PabDHAR2 (Picea abies) (protein)
chain: MSDLEIFSKAAPGTGSPSKERGDCPFSQRIFLELEELGLPYTATYIQEGADKPHWFMEKNPSGLMPVLRDRETWIQDSDKIAQYLDDHYAENTLRTQVEFKNVGSKIFPIFTKWLQCKDPNSACRDEFVDELVGFDRHLQNHGPYIAGKRPTDSDFALAPKLRHARVALAHFMDFQFPRELGALQNYMNRMESRESFEKTNYPNDMIIQGWRAKFNLPEKIANAS
notes: full length without predicted signal peptide, N-terminal 6xHis (pET-30a), E. coli BL21(DE3), Ni Sepharose; cytosolic, clade II, five exons
On to B2, for which the Km in data set [2] was determined as 118 ± 1 µM.
